In publication PMC3045311 one finds Inhibition (%) of xylanase activity (oat spelt xylan, DNS reagent, Abs 540 nm; 60 μg xylanases, 5 μg CaclXIP, 12:1 w/w, 50°C, 30 min) and Inhibition (%) of xylanase activity (oat spelt xylan, DNS reagent, Abs 540 nm; enzymes:inhibitor ratio 12:1 w/w) data, which are given here for one substance.

Test [1] concerns the target Aspergillus niger xylanases.
For test [2], the target named is Acrophialophora nainiana xylanases.
For test [3] the target is unchanged. This is another data set of the same source.

In the case of “Coffea arabica Chitinase-like Xylanase Inhibitor Protein (natural protein)”, the figures for the Inhibition (%) of xylanase activity (oat spelt xylan, DNS reagent, Abs 540 nm; 60 μg xylanases, 5 μg CaclXIP, 12:1 w/w, 50°C, 30 min) in test [1] and in test [2] were 19.5% and 57%, respectively. The Inhibition (%) of xylanase activity (oat spelt xylan, DNS reagent, Abs 540 nm; enzymes:inhibitor ratio 12:1 w/w) in test [3] was 56%.
